What follows are sequences tested on MS2 coat protein (assay: apparent KD of MS2 coat protein; higher = weaker reporter binding). Conditions: Eterna round: R107; input ligand: arginine 13.2 mM.
Outline: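 With or without constant ligand, designed RNA switches in 100 mM Tris-HCl pH 7.5, 80 mM KCl and 4 mM MgCl2 were titrated with SNAP-549-labelled MS2 coat protein. Concentrations went up in twofold steps from 0.7 or 1.5 nM to 3 µM. The switches had been transcribed on-chip from Illumina sequencing clusters, and apparent KD is the per-design median of normalised cluster binding-curve fits.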

| Sequence | apparent KD of MS2 coat protein [nM] |
| --- | --- |
| GGUGGCGGGACUGAUACCAGCCACCACCGAUAGACCACAUGAGGAUCACCCAUGUUGGGUGGCCCUUGGCAGCAGUCUUGCGGCU [#1 Same State - Theophylline B Attempt #14 (HarryS)] | 46.8 |

Same assay, conditions: Eterna round: R107; input ligand: none

| Sequence | apparent KD of MS2 coat protein [nM] |
| --- | --- |
| UGUAUGUGAUCUGAUACCAGUCCAACUGGUAAAAUAUGAGGAUCACCCAUAUAAAAUUGGGACCCUUGGCAGCAGAUCGCAUACU | 265 |
| GCGUACGAUCGGGAUACCAGACAUUGCCGUUAGGGUGAACCUGAGGAACACCCAGGUUUUGUCCCUUGGCAGCCCGAUCGUACGC [ETB NP+V+V2 #8 Diff Apt, Same Structure] | 19.6 |
| GUAGCUAUCGCGGCCGCCACUAAACCGGAAACGGAACAGUAGGAUCACCAUUGUGGCGAAAGCCAUAGGACCGGGCGAUAGCUAC [TryBS - Double Magnet system 2] | 502 |
| GCCUCCAGCCGAAGGAGCGCUAGAAGGUGACAUGAGGAUCACCCAUGUGUGUGAUGUGGCUAGCAGGUAGGUCGCGGAGGAGGUA [Exclusion - Arginine B (Freestyle 21)] | 99.7 |
| ACAUGAGGAUCACCCAUGUUAAGCAGGGUGCGAGGACCGGUACGGCCGCCACUCGGACAUUAUUACGAGUGAAUGGUAACGAUGU [#14 Exclusion Tryptophan A] | 18.2 |
| AGUUAUUUCCGAAGGAGCGUUAUACAUGAGGAUCACCCAUGUACAUGAGGUUCAACAUGAAAACAGGUAGGUCGCGGAUUUUGUC [Exclusion Arginine B4] | 19.2 |
| CUGGCAGGAUUCUCAGCUGUCAGGGCUGAUACCAGCCACGAAAGUGGCCCUUGGCAGCAGCAAACAUGAGGAUCACCCAUGUAAU [(T)''-(M)'-(T)'-(Theo)-(Ms2)_Design1] | 470 |
| CCAUAGGGUAAAUACAUAAUCAUAUCUGAAGGAGCGUGGAUAAACACAGGUAGGUCGCAGAAUCACAUGAGGAUCACCCAUGUCU [Same State Arginine A GF11] | 36.1 |
| UCGCCCGGGUCGGCCGCCACUGAGGUAAUAUGACAUGAGGAUCACCCAUGUUGUCAUGUGGAACAUAGGACCGGGACCCGGGCGA [Exclusion - Tryptophan B Attempt #1 (HarryS)] | 8.61 |
| GGGCUGUGACCAGGAAAUGGUCACAGCCCACGAGGACCGGUACGGCCGCCACUCGAAAGUACAUGAGGAUCACCCAUGUCGGUGG [#1 Same State - Tryptophan A Attempt #8 (HarryS)] | 34.1 |
| UGGGUACAUGAGGAUCACCCAUGUACUGAAGGAGCGAGAAAUAACUCAGGUAGGUCGCAGACAUGAGGAUCACCCAUGUAAUAAA [Exclusion Arginine A GF 10] | 18 |
| CGGUCGGUCGGCCGGUGAUUAUGGGAUGAAGGAGCGUGGGAAGCUACAGGUAGGUCGCAUCCGAAACACGAGGAUCACCCGUGUU [SSArg A #25Alt-Ms2 Mod] | 24.3 |
| AGUCGAAACUGAAGGAGCGAGAUGACAACAUUGGGUCUAACAUGAGGAUCACCCAUGUAAUCUCAGGUAGGUCGCAGUAACAAAA [Exclusion Arginine B GF 16] | 78.7 |
| GUACAUGAGGAUCACCCAUGUAUAGUUGAAGGAGCGACCGGUGGGUCAGGUAGGUCGCAGCGCAUGGCGUCCACGCGUGUAUGCC [#1 Exclusion - Arginine A Attempt #29 (Inspired by Pi)] | 12.3 |
| AACUGGACCAGUGAUACCAGAGACAUGAGGAUCACCCAUGUACAUGAGGAUCACCCAUGUCUCCCUUGGCAGCACAGCAGGGAGC [Exclusion Theophylline B Gf12] | 117 |
| UAAUAAUCCAGGGUGUAGGUAAUAACAGAUACCAGCCAGAUAACUGGCCCUUGGCAGCUGAAAACCUGAGGAUCACCCAGGUAAA [TheoAS 23 #OpenEnded #MS2Late #AlternativeMS2] | 56.2 |
| GGUGGCGGGACUGAUACCAGCCACCACCGAUAGACCACAUGAGGAUCACCCAUGUUGGGUGGCCCUUGGCAGCAGUCUUGCGGCU [#1 Same State - Theophylline B Attempt #14 (HarryS)] | 797 |

Same assay, conditions: Eterna round: R107; input ligand: theophylline 20 uM

| Sequence | apparent KD of MS2 coat protein [nM] |
| --- | --- |
| UGUAUGUGAUCUGAUACCAGUCCAACUGGUAAAAUAUGAGGAUCACCCAUAUAAAAUUGGGACCCUUGGCAGCAGAUCGCAUACU | 632 |
| CAGCAACAAUUGGAUACCAGCCAUUACAGGUAUCAUUAUAACAUGAGGAUCACCCAUGUAGGCCCUUGGCAGCCAUUGGUGUAAG [theeternabot_exclusion_MS2_Theo_B_22] | 69 |
| UGAUCCUACAGAGAUACCAGUGCCACUGAGUGACCAGACACAUGAGGAUCACCCAUGUAACACCCUUGGCAGCUCAACUAGAGGG [Same State Theophylline B GF18] | 22.3 |
| ACCGAAAGCUCACAUGAGGAUCACCCAUGUCGAGGACCGGUACGGCCGCCACUCGGCAAAUAUAAGGGUGGACGCGUCUCUGCGU [Soramasoso] | 58.8 |
| ACAUGAGGAUCACCCAUGUUCCUCAUUGAUACCAGUGAAUUUAGACGCCCUUGGCAGCGAGUUUUUUUAUAAGAAGUUUUUUUUU [6.G] | 659 |
| AAUUCAAUUUUCUUGAUGUAUUAUAUAUUUCGAGGACCGGUACGGCCGCCACUCGUUAAUUACAUGAGGAUCACCCAUGUUAGCU [JR_ExcTryptoA_Sub009] | 17.5 |
| GCGUACGAUCGGGAUACCAGACAUUGCCGUUAGGGUGAACCUGAGGAACACCCAGGUUUUGUCCCUUGGCAGCCCGAUCGUACGC [ETB NP+V+V2 #8 Diff Apt, Same Structure] | 65.8 |
| GUAGCUAUCGCGGCCGCCACUAAACCGGAAACGGAACAGUAGGAUCACCAUUGUGGCGAAAGCCAUAGGACCGGGCGAUAGCUAC [TryBS - Double Magnet system 2] | 830 |
| UCAUGAGGAUCACCCAUGUGGCGUCUUGAUACCAGACGAGAAGUAGUCCCUUGGCAGCAAAUACAUGAGGAUCACCCAUGUAGGA [cccmullin2] | 38.2 |
| GCGCGGCGAGUGCGGCGUGUUCCGCUCCGUCGAGGACCGGUACGGCCGCCACUCGACAUGAGGAUCACCCAUGUCGCCGCGCGUC [Exclusion - Tryptophan A Attempt #1] | 48.6 |
| AUCCUCAAGAAUGAUACCAGACCAAACAUGAGGAUCACCCAUGUAUCAGGCAAUUGUUACGUCCCUUGGCAGCAUGUAAGCCGAC [Theo B SS t2] | 70.2 |
| GCCUCCAGCCGAAGGAGCGCUAGAAGGUGACAUGAGGAUCACCCAUGUGUGUGAUGUGGCUAGCAGGUAGGUCGCGGAGGAGGUA [Exclusion - Arginine B (Freestyle 21)] | 134 |
| GUAUGGAAACAUACUUGGGUAUCAUGAGAUACCAGUACAGAAAUGUACCCUUGGCAGCUCAAGCAUACAUGAGGAUCACCCAUGU [Ex Theophylline A 8] | 22.5 |
| CUACAUGUAGUUAAACCGGUCAACAAUAAUCGAGGACCGGUACGGCCGCCACUCGAUGUGUUAUACACAUGAGGAUCACCCAUGU [Tryptophan A 15] | 27.2 |
| ACAUGAGGAUCACCCAUGUUAAGCAGGGUGCGAGGACCGGUACGGCCGCCACUCGGACAUUAUUACGAGUGAAUGGUAACGAUGU [#14 Exclusion Tryptophan A] | 29.8 |
| AGUUAUUUCCGAAGGAGCGUUAUACAUGAGGAUCACCCAUGUACAUGAGGUUCAACAUGAAAACAGGUAGGUCGCGGAUUUUGUC [Exclusion Arginine B4] | 27.6 |
| CUGGCAGGAUUCUCAGCUGUCAGGGCUGAUACCAGCCACGAAAGUGGCCCUUGGCAGCAGCAAACAUGAGGAUCACCCAUGUAAU [(T)''-(M)'-(T)'-(Theo)-(Ms2)_Design1] | 364 |
| UGAUACCAGUCGGCCGCCACUACAUGAGGAUCACCCAUGUAUGGGUCAAUGCUAGAUACUAGCAGUAGGACCGGGACUGGUAUCU | 14.8 |

Source: the supplement of paper PMC9170038
